Reference: FireProtDB
Several values for one entry are separate records, joined by “and”; a condition that tells them apart may be missing. Equal values may be shown once.

Conditions: whole UniProt chain shown
[1] = Rattus norvegicus, pH 7.5, Thermal, CD, phosphate 10 mM, NaF 100 mM, reversible: yes
[2] = Staphylococcus aureus, pH 7, 30 °C, GdnHCl, CD, Sodium phosphate/Sodium sulfate 1.0 mM/10 mM/, reversible: yes
[3] = Staphylococcus aureus, pH 7, Thermal, DSC, phosphate 100 mM, reversible: yes(75%)
[4] = Staphylococcus aureus, pH 7.5, 25 °C, Urea, CD, Tris-HCl 0.1 M, KCl 0.2 M, reversible: yes
[5] = Pyrococcus furiosus (strain ATCC 43587 / DSM 3638 / JCM 8422 / Vc1), pH 7, 40 °C, GdnHCl, CD, Tris-HCl 20 mM, reversible: yes
[6] = Pyrococcus furiosus (strain ATCC 43587 / DSM 3638 / JCM 8422 / Vc1), pH 7, 60 °C, GdnHCl, CD, Tris-HCl 20 mM, reversible: yes
[7] = Rattus norvegicus, pH 7, 25 °C, Urea, CD, Sodium phosphate 25 mM, NaCl 75 mM, reversible: yes
[8] = Rattus norvegicus, pH 7, 25 °C, Urea, Fluorescence, Sodium phosphate 25 mM, NaCl 75 mM, reversible: yes
[9] = Rattus norvegicus, pH 7, 27 °C, Urea, CD, Phosphate 10 mM
[10] = Rattus norvegicus, pH 7, 27 °C, Urea, Magnetic Relaxation Dispersion, Phosphate 10 mM
[11] = Rattus norvegicus, pH 7.2, 20 °C, GdnHCl, Fluorescence, Potassium phosphate 20 mM, reversible: yes
[12] = Rattus norvegicus, pH 7.4, 20 °C, GdnHCl, CD, Potassium phosphate 20 mM, reversible: yes
[13] = Rattus norvegicus, pH 7.4, 20 °C, GdnHCl, Fluorescence, Potassium phosphate 20 mM, reversible: yes
[14] = Rattus norvegicus, pH 9.6, 20 °C, GdnHCl, Fluorescence, Sodium pyrophosphate 20 mM, reversible: yes

B1: Homeobox protein Nkx-2.1 wild type, P23441 (protein)
chain: MSMSPKHTTPFSVSDILSPLEESYKKVGMEGGGLGAPLAAYRQGQAAPPAAAMQQHAVGHHGAVTAAYHMTAAGVPQLSHSAVGGYCNGNLGNMSELPPYQDTMRNSASGPGWYGANPDPRFPAISRFMGPASGMNMSGMGGLGSLGDVSKNMAPLPSAPRRKRRVLFSQAQVYELERRFKQQKYLSAPEREHLASMIHLTPTQVKIWFQNHRYKMKRQAKDKAAQQQLQQDSGGGGGGGGGAGCPQQQQAQQQSPRRVAVPVLVKDGKPCQAGAPAPGAASLQGHAQQQAQQQAQAAQAAAAAISVGSGGAGLGAHPGHQPGSAGQSPDLAHHAASPAALQGQVSSLSHLNSSGSDYGAMSCSTLLYGRTW
For B1, the unfolding free energy (Rattus norvegicus, pH 7.5, 25 °C, Urea, CD, phosphate 10 mM, NaF 100 mM, reversible: yes) was 1.26 kcal/mol, the Tm [1] was 42.8 °C and the unfolding free energy [1] was 1.44 kcal/mol.

B2: wild type, Q9EYL5 (protein)
chain: MTKKLLTLFIVSMLILTACGKKESATTSSKNGKPLVVVYGDYKCPYCKELDEKVMPKLRKNYIDNHKVEYQFVNLAFLGKDSIVGSRASHAVLMYAPKSFLDFQKQLFAAQQDENKEWLTKELLDKHIKQLHLDKETENKIIKDYKTKDSKSWKAAEKDKKIAKDNHIKTTPTAFINGEKVEDPYDYESYEKLLKDKIK
With B2 the “denaturant midpoint (higher = more stable)” value (shortened to “denaturant midpoint”) [2] was 1.66 M, the unfolding free energy [2] was 8 kcal/mol and the unfolding free energy (Staphylococcus aureus, pH 7, 30 °C, Thermal, DSC, phosphate 100 mM, reversible: yes(75%)) was 11.6 kcal/mol and 15.8 kcal/mol. The unfolding free energy (Staphylococcus aureus, pH 7, 30 °C, Thermal, Fluorescence, Sodium phosphate 100 mM, EDTA 1 mM, reversible: yes) was 11.1 kcal/mol, the unfolding free energy (Staphylococcus aureus, pH 7, 30 °C, Thermal, Fluorescence, Sodium phosphate 100 mM, reversible: yes) was 7 kcal/mol and the unfolding free energy (Staphylococcus aureus, pH 7, 30 °C, Thermal, Fluorescence, phosphate 100 mM, reversible: yes(75%)) was 8.29 kcal/mol and 12.6 kcal/mol. The Tm [3] was 68.4 °C, the “heat capacity change of unfolding” value [3] was 2.22 kcal/mol/K and the “unfolding enthalpy (calorimetric)” value [3] was 148 kcal/mol. The “unfolding enthalpy (van 't Hoff)” value [3] was 137 kcal/mol, the “denaturant midpoint” value [4] was 4.2 M and 5.6 M and 5.62 M and the unfolding free energy [4] was 8.7 kcal/mol and 12.3 kcal/mol and 12.9 kcal/mol.

B3: Pyrrolidone-carboxylate peptidase wild type, O73944 (protein)
chain: MKVLVTGFEPFGGEKINPTERIAKDLDGIKIGDAQVFGRVLPVVFGKAKEVLEKTLEEIKPDIAIHVGLAPGRSAISIERIAVNAIDARIPDNEGKKIEDEPIVPGAPTAYFSTLPIKKIMKKLHERGIPAYISNSAGLYLCNYVMYLSLHHSATKGYPKMSGFIHVPYIPEQIIDKIGKGQVPPSMCYEMELEAVKVAIEVALEELL
In the case of B3, the denaturant m value [5] is reported as 4.66 kcal/mol/M, the “denaturant midpoint” value [5] is reported as 0.4 M and the unfolding free energy [5] is reported as 1.82 kcal/mol. The denaturant m value [6] was 4.13 kcal/mol/M, the “denaturant midpoint” value [6] was 3.2 M and the unfolding free energy [6] was 13 kcal/mol.

B4: Fatty acid-binding protein, brain wild type, P55051 (protein)
chain: MVDAFCATWKLTDSQNFDEYMKALGVGFATRQVGNVTKPTVIISQEGGKVVIRTQCTFKNTEISFQLGEEFEETSIDDRNCKSVIRLDGDKLIHVQKWDGKETNCVREIKDGKMVVTLTFGDVVAVRCYEKA
In the case of B4, the denaturant m value [7] is reported as 1.04 kcal/mol/M, the “denaturant midpoint” value [7] is reported as 4.1 M and the unfolding free energy [7] is reported as 4.28 kcal/mol. The denaturant m value [8] was 1.13 kcal/mol/M, the “denaturant midpoint” value [8] was 4.24 M and the unfolding free energy [8] was 4.79 kcal/mol. For the same protein, the denaturant m value [9] was 1 kcal/mol/M, the “denaturant midpoint” value [9] was 5.1 M and the denaturant m value [10] was 0.88 kcal/mol/M. For the same protein, the “denaturant midpoint” value [10] was 6.5 M, the “denaturant midpoint” value [11] was 1.36 M and the unfolding free energy [11] was 5.22 kcal/mol. The denaturant m value [12] was 5.33 kcal/mol/M, the “denaturant midpoint” value [12] was 1.32 M and the unfolding free energy [12] was 7.06 kcal/mol. For the same protein, the denaturant m value [13] was 3.82 kcal/mol/M, the “denaturant midpoint” value [13] was 1.36 M and the unfolding free energy [13] was 5.22 kcal/mol. The unfolding free energy (Rattus norvegicus, pH 8, 25 °C, Urea, CD, NaH2PO4 25 mM/, NaCl 75 mM, reversible: Yes) was 5.86 kcal/mol, the unfolding free energy (Rattus norvegicus, pH 8, 25 °C, Urea, Fluorescence, NaH2PO4 25 mM/, NaCl 75 mM, reversible: Yes) was 5.28 kcal/mol and the “denaturant midpoint” value [14] was 1.41 M. The unfolding free energy [14] was 5.59 kcal/mol.

B5: Cytochrome b5 wild type, P00173 (protein)
chain: MAEQSDKDVKYYTLEEIQKHKDSKSTWVILHHKVYDLTKFLEEHPGGEEVLREQAGGDATENFEDVGHSTDARELSKTYIIGELHPDDRSKIAKPSETLITTVESNSSWWTNWVIPAISALVVALMYRLYMAED
With B5 the Tm (Rattus norvegicus, pH 7, Thermal, UV spectroscopy, Sodium phosphate 50 mM, reversible: Yes) was 93.1 °C.

B6: Cytochrome b5 type B wild type, P04166 (protein)
chain: MATPEASGSGRNGQGSDPAVTYYRLEEVAKRNTAEETWMVIHGRVYDITRFLSEHPGGEEVLLEQAGADATESFEDVGHSPDAREMLKQYYIGDVHPNDLKPKDGDKDPSKNNSCQSSWAYWIVPIVGAILIGFLYRHFWADSKSS
In the case of B6, the “denaturant midpoint” value (Rattus norvegicus, pH 7, 25 °C, GdmSCN, UV/visible spectrophotometer, MOPS 30mM) is reported as 2.04 M and the Tm (Rattus norvegicus, pH 7, Thermal, UV/visible spectrophotometer, Potassium phosphate 50mM) is reported as 85.5 °C.
